Measurements taken from the supplement of paper PMC9170038.

System: K4 kissing-loop RNA reporter
Assay: apparent KD of K4 kissing-loop reporter; higher = weaker reporter binding
Details: Eterna round: R107
Procedure: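 RNA-MaP round R107: designed RNA switches with theophylline, tryptophan, arginine or FMN aptamers are transcribed on-chip within common flanks. They are titrated with a labelled K4 kissing-loop RNA reporter in RNA-MaP buffer (100 mM Tris pH 7.5, 80 mM KCl, 4 mM MgCl2), without ligand or with the indicated ligand. Median apparent KD per design.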

[1] = input ligand: theophylline 20 uM
[2] = input ligand: tryptophan 2.4 mM
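Also: bound reporter read as fluorescence of individual clusters on recovered sequencing chips by microscopy, with normalized cluster intensities fitted with a binding model.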

Row | Sequence | apparent KD of K4 kissing-loop reporter (input ligand: FMN 200 uM) | apparent KD of K4 kissing-loop reporter (input ligand: arginine 13.2 mM) | apparent KD of K4 kissing-loop reporter (input ligand: none) | apparent KD of K4 kissing-loop reporter [1] | apparent KD of K4 kissing-loop reporter [2]
1 | CGUGAAUGUCGUCAGUCAUCGGUCCAUGCACGAGGACCGGUACGGCCGCCACUCGAGCGUGGCAGUGAUGUUGCCAGCGCACUAA [KL-XTryp-A13] | 138 nM | 115 nM | 128 nM | 137 nM | 315 nM
2 | GGAGGUUGGUGCGAUACCAGACCAGCAGUGAUGUUGCGCCAAAGUGAGUGAUGUUCACCGGUCCCUUGGCAGCGCAUUCCUUUAG [Same State Theophylline B GF 14] | 964 nM | 1110 nM | 1440 nM | 1120 nM | 1110 nM
3 | CAGAUCACAGAGUGAUGUUCUGUGUCCGAAGGAGCGCGCGAGAGCGCAGGUAGGUCGCGGAUACAGUUGACGUACCAUCUAGACA [Arg A Ex t3b] | 306 nM | 244 nM | 278 nM | 246 nM | 269 nM
4 | GUUGAUCAUGGAAGGAGCGCCCAUUGUCGACACGAGUGAUGUUCGUGUCGUUAAUUAUGAGGGCAGGUAGGUCGCCGUGUGCUUU [Soqugebi] | 144 nM | 103 nM | 130 nM | 115 nM | 128 nM
5 | CUCCGACUAUCGGCCGCCACUAUCGGAAAGUCCACGGACAUUCAAUGCAGUUAGUGAUGUUAACGUAGGACCGGGAUGAUUUGUA [theeternabot_sameState_KL_Trp_B_9] | 543 nM | 350 nM | 659 nM | 541 nM | 491 nM
6 | AAGUGAUGUUGUAGUGAUGUUGUGAUGUUGCAGGAUAUAUAGUGAUGUAGAAGGGUAUGUGCAGUGUUCUUAUUUGAGUGUUGAU [zffdmullin] | 80.1 nM | 33.9 nM | 64.7 nM | 63.2 nM | 64 nM
7 | UCUGGAGCAUAUGAUACCAGCAGUGAGAGACAGGAAGUAUAGUGAUGUUAUAUGAGAGAAUGCCCUUGGCAGCGUGUGUAGUGGG [SSTheophylB.N] | 174 nM | 137 nM | 128 nM | 170 nM | 104 nM
8 | UUGAGCCGGACUUAAGUCCGGCUCUGCGAGCGAGGACCGGUACGGCCGCCACUCGGUGCAGUGAUGUUGCAUGGCCGCAAGGCCG [#2 Exclusion - Tryptophan A Attempt #11 (HarryS)] | 269 nM | 209 nM | 298 nM | 231 nM | 296 nM
9 | CCUAUCUCAUACGAUACCAGUCAAUGAUCUUUGAUCAAUGCCAUCACCGAGUGAUGUUCGGACCCUUGGCAGCGUAUGAGAUAGG [whbob_Ex_Theo_B_sa103] | 277 nM | 225 nM | 267 nM | 452 nM | 247 nM
10 | AACUCUCAGACACUUGAGUGAUGUUCAGGCCGAGGACCGGUACGGCCGCCACUCGGGUCUGAGAGAGGUUAUCAAAGAUAGCCAA [Omei KL Tryp A SS A v5] | 350 nM | 194 nM | 249 nM | 261 nM | 273 nM
11 | AAUAAUUUCAGAGGAUAUGCUUUAUUAUGAUUUUUAAAUAAUAAAUGCAGUGAUGUUGCUUAUUAUGCAGAAGGCUGAUUUAUAA [JR_SSFMNB_Sub015] | 143 nM | 727 nM | 747 nM | 721 nM | 565 nM
12 | AUAGUGAGCUCGGCCGCCACUCCACUAUGUCAACAGUAGCUCUGUCAUAACCAGUGAUGUUGGUUGAGGACCGGGAGUUAAGACU [theeternabot_exclusion_KL_Trp_B_34] | 193 nM | 164 nM | 198 nM | 195 nM | 201 nM
13 | GCGCGUCAUGUCAGCGGAGACACUGUCGAUACCAGCGCCGCAAGGCGCCCUUGGCAGCGACGCGCUGGAGUGAUGUUCCAGCGUG [#2 Exclusion - Theophylline A Attempt #15 (HarryS)] | 171 nM | 154 nM | 148 nM | 143 nM | 159 nM
14 | UCCUGCAAUCGACCACGAAAGUGGAUCGAUACCAGAGUCGAAAGACUCCCUUGGCAGCGAGUGAUGUUCGAGCAGGUAAAAUAAA [#SwitchBubble 23 #K4Late] | 713 nM | 461 nM | 446 nM | 406 nM | 486 nM
15 | UUAGUUAGAUUAUUAUUAGCCUACAAUGCUAAGGAUAUCCGAAUUCGGAGAAGGUAGUGAUGUUACUUAAGUAGGCACUAACAUU [AK7 Exc FMN A] | 257 nM | 745 nM | 932 nM | 925 nM | 671 nM
16 | AGACUACCACACUGUCAAUAGACAGUGAGCUAGGAUAUGCUGAUAAGCAGAAGGAGUGAUGUUCCUGGGUAGUCAAUAAAAUAAU [FmnAX 13 G29+G67] | 399 nM | 349 nM | 362 nM | 441 nM | 342 nM

Row | Sequence | apparent KD of K4 kissing-loop reporter (input ligand: FMN 200 uM) | apparent KD of K4 kissing-loop reporter (input ligand: arginine 13.2 mM) | apparent KD of K4 kissing-loop reporter (input ligand: none) | apparent KD of K4 kissing-loop reporter [1] | apparent KD of K4 kissing-loop reporter [2]
17 | UGUCAUUGGUCGGCCGCCACUUCAUGUAGAGUGAUGUUUUGUAGGACGGAUCGAAAGAUCUGUCGAAGGACCGGGACCGAUGACU [FiskerMod 15 - Jieux - Same State - Tryptophan B] | 233 nM | 84.7 nM | 197 nM | 235 nM | 1040 nM
18 | GGAUAGGACAGAGGAUAUUGGUAGUGAUGUUACCAAAUAAAUAAACAGUCUACAAAGUAGGCUGACCAAGAAGGCUGUCCUAUCG [FmnBX 24 #SwitchBubble #StaticStem #Palindromic] | 226 nM | 79.1 nM | 85.2 nM | 80.1 nM | 74.7 nM
19 | CUUGGAAGGACGGCCGCCACUGGGCAGUGAUGUUGCCCGAGUUGGUAACGCAGUGAUGUUGCGUCCAGGACCGGGUCCUAGGAAU [Exclusion Tryptophan B GF 25] | 141 nM | 113 nM | 112 nM | 106 nM | 139 nM
20 | UAAGACAUGAAAGGAUAUCCGAUAUGGAGCCUUUAGUGAUGUUAGGAGCUAGCCGUAGACAAGAUCGGAGAAGGUUCAACCCACA [theeternabot_sameState_KL_FMN_B_13] | 787 nM | 506 nM | 646 nM | 705 nM | 640 nM
21 | UCCUGCUGUCUGCCACGAAAGUGGAUUGAUACCAGAGUCGAAAGACUCCCUUGGCAGCGAGUGAUGUUCGAAGCAGGUAAAUAAA [MatMod 2 - Jieux - Exclusion - Theophylline A] | 210 nM | 215 nM | 234 nM | 220 nM | 188 nM
22 | UGUCAUUGGUCGGCCGCCACUGAAAUAAAAGAGUGAUGUUCUUAAAAGACGGACAAAGUCUGUCAUAGGACCGGGACCGAUGACU [TrypBS 24 #SwitchBubble #StaticStem] | 662 nM | 558 nM | 473 nM | 369 nM | 380 nM
23 | UGGAGUUGACGAAAAGUCAACUCCUGAGAUACCAGUGACGAAAGUCACCCUUGGCAGCUCACUGCCAGUGAUGUUGGUUCAUAAG [#03 K4 Theophylline A Same State] | 223 nM | 197 nM | 152 nM | 245 nM | 142 nM
24 | AUUUAAUGUAUAGAUUAUAUACAUUAUUCAGAGGAUAUGCUUUGAAGCAGAAGGCUGGAUGUAGUGAUGUUGCAAUUUUAAUUUA [JR_SSFMNA_Sub006] | 214 nM | 265 nM | 236 nM | 250 nM | 163 nM
25 | GUGGUUUACGUAGGAUAUCGAUGAUGAGUAAAUGGAGUGAUGUUCCGAGAUUGAAUAUGAGAUGAGCGAGAAGGGCGGUUUAUGC [FMN B Same State; Euporia Solution 2] | 32.8 nM | 36.9 nM | 31.4 nM | 37.3 nM | 29.5 nM
26 | GCCAGUGAUGUUGGCAUUUCGAGCCAUGAAGGAGCGCACGGAAGUGCAGGUAGGUCGCAUGGUACUUAGGAUAUUACCCUAAGUA [Isterare] | 206 nM | 177 nM | 212 nM | 200 nM | 161 nM
27 | GUCCCGAGUGAUGUUCGGGUCGUUCGGGAAGGAGCGCCCGCAAGGGCAGGUAGGUCGCCCGGAUCUCUCAGGUAACUGAGAGACC [#2 Same State - Arginine A Attempt #28 (HarryS)] | 553 nM | 319 nM | 431 nM | 408 nM | 416 nM
28 | UGACUGGACUGAAGGAGCGAGCGAGACAAAGUCUCGAAAAUUCAGUGAUGUUGAUAUAUAACUCAGGUAGGUCGCAGUCUAGUCU [ArgBS 5 #SwitchBubble #StaticStem] | 447 nM | 433 nM | 477 nM | 464 nM | 431 nM
29 | AGUGUUAGGUUAGAUACCAGCCGUCUGUGAGUAACCCACAGACCGCCAGUGAUGUUGGCAGGCCCUUGGCAGCUAACAGGACAGA [Anesarerza] | 211 nM | 226 nM | 210 nM | 152 nM | 211 nM
30 | UAAUCUAACGAGAGUGAUGUUCUCGUCACAGAGGAUAUACGAUUUAGUAGAAGGCUGUUGGAUUCGCUUAAUGAUGACUAGAUUA [FMN A SS t1] | 242 nM | 196 nM | 223 nM | 232 nM | 205 nM
31 | GGAGGGAUCUCGGCCGCCACUCAUAAGAAAUGGGCCUCAGAAAUAUAGUGAUGUUAUGUAAAGAAGAGGACCGGGAGAAAGAAGG [ExTryptoB.Da] | 390 nM | 202 nM | 324 nM | 218 nM | 242 nM
